Assay results taken from paper PMC5270673, “Altered stoichiometry and nuclear delocalization of NonO and PSF promote cellular senescence” (Aging (Albany NY), 2016).

T1: Splicing Factor Proline/Glutamine Rich, PSF/SFPQ (human (endogenous in BJ fibroblasts)), P23246
T1 chain: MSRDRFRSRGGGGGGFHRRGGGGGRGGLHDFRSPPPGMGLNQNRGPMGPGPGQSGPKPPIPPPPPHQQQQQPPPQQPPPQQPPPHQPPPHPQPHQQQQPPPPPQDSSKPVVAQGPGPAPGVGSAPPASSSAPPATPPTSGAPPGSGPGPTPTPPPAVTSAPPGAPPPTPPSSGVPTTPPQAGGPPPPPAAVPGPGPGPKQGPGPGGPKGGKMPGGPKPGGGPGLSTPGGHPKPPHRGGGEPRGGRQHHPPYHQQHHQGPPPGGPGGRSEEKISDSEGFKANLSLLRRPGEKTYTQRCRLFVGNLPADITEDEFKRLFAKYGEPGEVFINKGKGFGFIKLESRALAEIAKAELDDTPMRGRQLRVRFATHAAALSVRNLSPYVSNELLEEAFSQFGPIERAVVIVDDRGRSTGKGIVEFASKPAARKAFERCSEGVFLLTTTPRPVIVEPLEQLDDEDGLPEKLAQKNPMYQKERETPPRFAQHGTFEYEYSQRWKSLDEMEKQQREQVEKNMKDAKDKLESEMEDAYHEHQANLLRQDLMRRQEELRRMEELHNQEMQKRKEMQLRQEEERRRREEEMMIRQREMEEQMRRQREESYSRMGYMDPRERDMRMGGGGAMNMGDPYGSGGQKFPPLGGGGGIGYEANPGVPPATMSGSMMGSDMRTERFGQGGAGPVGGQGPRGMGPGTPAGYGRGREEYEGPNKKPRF


Legend:
[1] = target: T1, Splicing Factor Proline/Glutamine Rich, …; test: SEC; Superose 6 FPLC of nuclear and cytoplasmic extracts of BJ fibroblasts, untransfected or overexpressing NonO, day 8; 400 mM KCl, 20 mM HEPES pH 7.9, 1.0 mM MgCl2, 0.5 mM EGTA, 10% glycerol; fractions blotted with anti-NonO and anti-PSF; masses estimated from marker proteins; conditions: remark: other sources report otherwise
[2] = target: the molecule itself; test: as above

Binder	stoichiometry N [1]	stoichiometry N [2]
Splicing Factor Proline/Glutamine Rich, PSF/SFPQ, P23246 1-707 (natural protein) MSRDRFRSRGGGGGGFHRRGGGGGRGGLHDFRSPPPGMGLNQNRGPMGPGPGQSGPKPPIPPPPPHQQQQQPPPQQPPPQQPPPHQPPPHPQPHQQQQPPPPPQDSSKPVVAQGPGPAPGVGSAPPASSSAPPATPPTSGAPPGSGPGPTPTPPPAVTSAPPGAPPPTPPSSGVPTTPPQAGGPPPPPAAVPGPGPGPKQGPGPGGPKGGKMPGGPKPGGGPGLSTPGGHPKPPHRGGGEPRGGRQHHPPYHQQHHQGPPPGGPGGRSEEKISDSEGFKANLSLLRRPGEKTYTQRCRLFVGNLPADITEDEFKRLFAKYGEPGEVFINKGKGFGFIKLESRALAEIAKAELDDTPMRGRQLRVRFATHAAALSVRNLSPYVSNELLEEAFSQFGPIERAVVIVDDRGRSTGKGIVEFASKPAARKAFERCSEGVFLLTTTPRPVIVEPLEQLDDEDGLPEKLAQKNPMYQKERETPPRFAQHGTFEYEYSQRWKSLDEMEKQQREQVEKNMKDAKDKLESEMEDAYHEHQANLLRQDLMRRQEELRRMEELHNQEMQKRKEMQLRQEEERRRREEEMMIRQREMEEQMRRQREESYSRMGYMDPRERDMRMGGGGAMNMGDPYGSGGQKFPPLGGGGGIGYEANPGVPPATMSGSMMGSDMRTERFGQGGAGPVGGQGPRGMGPGTPAGYGRGREEYEGPNKKPRF	2	–
NonO overexpressed in BJ fibroblasts (natural protein, UniProt Q99K48 1-473, looked up, NonO cDNA expressed from a transfected plasmid; Its NonO fragments end at residue 473; The tag is therefore unknown; also called NonO OE; full-length NonO; source: BJ human diploid fibroblasts, stably transfected, nuclear or cytoplasmic extract) MQSNKAFNLEKQNHTPRKHHQHHHQQHHQQQQQQQQQQPPPPIPANGQQASSQNEGLTIDLKNFRKPGEKTFTQRSRLFVGNLPPDITEEEMRKLFEKYGKAGEVFIHKDKGFGFIRLETRTLAEIAKVELDNMPLRGKQLRVRFACHSASLTVRNLPQYVSNELLEEAFSVFGQVERAVVIVDDRGRPSGKGIVEFSGKPAARKALDRCSEGSFLLTTFPRPVTVEPMDQLDDEEGLPEKLVIKNQQFHKEREQPPRFAQPGSFEYEYAMRWKALIEMEKQQQDQVDRNIKEAREKLEMEMEAARHEHQVMLMRQDLMRRQEELRRMEELHNQEVQKRKQLELRQEEERRRREEEMRRQQEEMMRRQQEGFKGTFPDAREQEIRMGQMAMGGAMGINNRGAMPPAPVPPGTPAPPGPATMMPDGTLGLTPPTTERFGQAATMEGIGAIGGTPPAFNRPAPGAEFAPNKRRRY	–	2
